According to patent publication US20260125665:

In the case of Thrombin, the “cleavage by thrombin (reducing SDS-PAGE, Western blot with anti-human UPA antibody)” value (Microlyse variant 1.1) was “For both ML 1.0 and ML 1.1 a distinct band at around 35 Kd is observed, indicating cleavage of Microlyse by thrombin” and the “cleavage by thrombin (reducing SDS-PAGE, Western blot with anti-human UPA antibody)” value (Microlyse variant 1.0) was “For both ML 1.0 and ML 1.1 a distinct band at around 35 Kd is observed, indicating cleavage of Microlyse by thrombin”.
